The stoichiometry N is the number of molecules, sites or subunits per partner or assembly.

Assay [1] deals with ht-ADH single-tryptophan variant W87in (W49F:W167Y) (Bacillus stearothermophilus). The assay is described as follows: SEC. (In general: SEC sorts molecules by how far they enter the pores of the column.)
For assay [2], the target named is ht-ADH single-tryptophan variant W167in (W49F:W87F) (Bacillus stearothermophilus). The assay is described as follows: SEC.

Take “ht-ADH single-tryptophan variant W87in (W49F:W167Y) (enzyme)”: the stoichiometry N in assay [1] was found to be 4.

In assay [2], “ht-ADH single-tryptophan variant W167in (W49F:W87F) (enzyme)” returned a stoichiometry N of 4.

The record behind these values is PMC4056859.
